Measured values from patent US20230212239A1, “INHIBITORS OF CBL AUTOINHIBITION AND RELATED METHODS” (THE HOSPITAL FOR SICK CHILDREN, priority 2020, published 2023).

T1: CBL TKBD-LHR-RING (2-436), unphosphorylated (Homo sapiens, UniProt P22681)
T1 construct: GST (N, cleaved yes); made in house; host or cells: E. coli BL-21
T1 sequence (P22681 2-436): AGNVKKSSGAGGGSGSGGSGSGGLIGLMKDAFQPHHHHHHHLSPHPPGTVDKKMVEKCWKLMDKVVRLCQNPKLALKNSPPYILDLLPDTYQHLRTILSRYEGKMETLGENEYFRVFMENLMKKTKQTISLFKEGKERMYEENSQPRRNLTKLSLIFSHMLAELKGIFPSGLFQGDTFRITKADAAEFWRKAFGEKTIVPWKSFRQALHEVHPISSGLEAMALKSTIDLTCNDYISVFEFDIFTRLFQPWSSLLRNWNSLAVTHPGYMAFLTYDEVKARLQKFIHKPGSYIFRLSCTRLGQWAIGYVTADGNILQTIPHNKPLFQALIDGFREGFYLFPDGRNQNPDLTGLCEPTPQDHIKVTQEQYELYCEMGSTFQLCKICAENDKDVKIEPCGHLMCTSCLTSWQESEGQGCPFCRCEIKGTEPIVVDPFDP

T2: CBL TKBD (Homo sapiens, UniProt P22681)
T2 construct: with CBL (47-357) cloned in frame into MCS2 of the same pETDuet-1 vector; made in house
T2 sequence (P22681 47-357): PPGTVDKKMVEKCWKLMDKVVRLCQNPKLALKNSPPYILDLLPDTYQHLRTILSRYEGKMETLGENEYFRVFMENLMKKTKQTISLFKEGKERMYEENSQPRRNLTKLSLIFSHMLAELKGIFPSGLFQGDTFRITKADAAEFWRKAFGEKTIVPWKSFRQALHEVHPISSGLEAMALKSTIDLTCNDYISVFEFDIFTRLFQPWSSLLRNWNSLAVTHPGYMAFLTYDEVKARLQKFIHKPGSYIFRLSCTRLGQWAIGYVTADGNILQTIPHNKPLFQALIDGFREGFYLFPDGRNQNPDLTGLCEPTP


Columns and labels:
CBL TKBD [1] = assay: Co-purification of CBL TKBD with Trx-His-SLAP2/SLAP (Duet co-expression, Ni-NTA, SDS-PAGE); assay type: binding; settings: low salt concentration (0.15 M NaCl)
Description: (§1) To validate the CBL/SLAP2 binding interface, a series of mutants in a Duet co-expression vector system was generated for co-purification trials. The SLAP2 sequence was preceded by thioredoxin (Trx) and His-tag fusion proteins to allow co-purification of CBL TKBD that was bound to Trx-His-SLAP2 during the initial affinity chromatography purification step. Surface residues deemed to be important to the CBL/SLAP2 interface, but not CBL function or folding, were mutated to disrupt CBL/SLAP2 binding (FIG. 5C and FIG. 6). In our structure, SLAP2 Gly240 locates close to CBL Met269 and Ala270, such that mutation to a bulky Arg residue (G240R) could cause sterical constraints. Similarly, SLAP2 Leu241 is situated in a hydrophobic cleft composed of CBL Ala223, Trp258, and Val263; mutation to Arg (L241R) was predicted to disturb this binding pocket. Mutation of CBL Ala223 to Arg (A223R) would likewise disrupt this pocket, with CBL/SLAP2 double mutant A223R/L241R predicted to drastically disturb binding through sterical constraints and charge repulsion. (For clarity, CBL mutations herein are indicated in italics, SLAP2 in regular font.) Similarly, single or double mutation of CBL Ser226 or SLAP2 Ser244, whose side chain hydroxyl groups are in close proximity to one another, to charged Glu residues (S226E and S244E) was anticipated to interfere with CBL/SLAP2 binding. Finally, given that SLAP2 binds CBL as an α-helix, mutation of Leu245, located in the center of this α-helix, to proline (L245P) was expected to interrupt the helical structure and thus prevent SLAP2 binding. […] However, double mutation of the CBL/SLAP2 interface (A223R/L241R and S226E/S244E; FIG. 5D, lower panel) was not tolerated, even at low salt concentration.
(§2) For co-purification of CBL and SLAP2/SLAP, Duet-His-hSLAP2-CBL 29-261 Δ198-229 and 29-254 Δ198-229, Duet-His-Δlinker-hSLAP2-CBL WT and point mutants, and Duet-His-mSLAP-CBL WT and point mutants were overexpressed in E. coli BL-21 as above or TKB1 competent cells (Stratagene) as per manufacturer’s instructions, and cells harvested as above (except 100 mL of LB, overnight at 16-18° C., and 0.35-0.5 mM IPTG induction). Cell pellets were resuspended in either high or low salt (as for high salt except 25 mM HEPEs pH 7.5, 150 mM NaCl) lysis buffer and purified as above on Ni-NTA agarose (Qiagen) with wash buffer (25 mM HEPEs pH 7.5, 150 mM NaCl, 2% glycerol, 20 mM imidazole, 10 mM βME). Bead slurry was mixed with SDS 2X loading buffer (125 mM Tris pH 6.8, 4% SDS, 20% glycerol, 0.715 M βME, bromophenol blue), boiled, and analyzed by 10 or 12.5% SDS-PAGE, stained with Coomassie blue.

[2] = target: T1, CBL TKBD-LHR-RING (2-436), unphosphorylated; assay: In vitro ubiquitination assay, anti-ubiquitin immunoblot; assay type: biochemical; settings: anti-Ub immunoblot and E3LITE (FIGS. 11A,B, 10B-D)
Description: Given that binding of SLAP2 and the LHR-RING would be mutually exclusive (FIG. 8C), we reasoned that binding of SLAP2 to CBL could displace the LHR-RING, thereby promoting the catalytically competent conformation. To test this hypothesis, an in vitro ubiquitination assay in which E3 ligase activity is detected by a smear at high molecular weight on an anti-ubiquitin (Ub) immunoblot was employed. […] To further compare and quantify CBL ubiquitin ligase activity, a chemiluminescence based assay which measures the total amount of polyubiquitylated products formed in an in vitro reaction was used. In this assay, production of polyubiquitylated proteins increased upon addition of SLAP2 or pSLAP2 to CBL, compared to CBL alone (FIG. 9C and FIG. 10A).
In vitro ubiquitination reactions were prepared with 20 pmol of CBL or pCBL and 60 pmol of hSLAP2 or phosphorylated hSLAP2 (pSLAP2) for both WT and mutants. Reagents were thawed and reactions prepared on ice. CBL and SLAP2 were mixed in PBS (with 5 mM βME, 5 mM caproic acid, 0.5 mM PMSF, and 0.5 mM Na3VO4) at rt for 5-10 min before addition of master mix (42 pmol E1 (UBE1, Boston Biochem or Ubiquitin-Proteasome Biotechnologies), 0.1 µmol E2 (UbcH5b/UBE2D2, Boston Biochem #E2-622), […], and 11.6 µmol ubiquitin (Boston Biochem #U-100H) in reaction buffer (0.2 M Tris pH 7.5, 10 mM MgCl2, 2 mM DTT). Reactions were incubated at 30° C. shaking at 500-700 rpm for 60-110 minutes and terminated by addition of SDS 2X loading buffer and boiling for 5-10 minutes. Equal volumes of each reaction were loaded on 12.5% SDS-PAGE gel, transferred to PVDF membrane, and immunoblotted for ubiquitin as per standard protocols (anti-ubiquitin antibody P4G7, BioLegend #838701, 1:1000; anti-mouse IgG HRP-linked antibody, Cell Signaling Technology #7076, 1:10000; Western Lightning Plus ECL, Perkin Elmer).

CBL TKBD [3] = target: T2, CBL TKBD; assay: Co-purification of CBL TKBD with Trx-His-SLAP2/SLAP (Duet co-expression, Ni-NTA, SDS-PAGE); assay type: binding; settings: conditions where SLAP2 was tyrosine phosphorylated (TKB1), low salt
Description: as §1, §2

Row | CBL TKBD co-purification (CBL TKBD [3]) | Molecule | CBL TKBD co-purification (CBL TKBD [1]) | stimulation/activation of CBL ubiquitination activity by SLAP2 mutants versus WT [2]
1 | – | SLAP2 R242A: SLAP2 mutant in the SLAP2/SLAP2 interface (protein, left off: large carriers; small tags and cut ends, SLAP2 mutant in the SLAP2/SLAP2 interface) EAERSKATAVALGSFPAGGPAELSLRLGEPLTIVSEDGDWWTVLSEVSGREYNIPSVHVAKVSHGWLYEGLSREKAEELLLLPGNPGGAFLIRESQTRRGSYSLSVRLSRPASWDRIRHYRIHCLDNGWLYISPRLTFPSLQALVDHYSELADDICCLLKEPCVLQRAGPLPGKDIPLPVTVQRTPLNWKELDSSLLFSEAATGEESLLSEGLAESLSFYISLNDEAVSLDDA | did not significantly impact co-purification of CBL | did not alter SLAP2 or pSLAP2 activation of CBL
2 | co-purified | SLAP2 Y248F: SLAP2 Tyr248 to Phe mutant, expressed under phosphorylating conditions (protein, left off: large carriers; small tags and cut ends, SLAP2 Tyr248 to Phe mutant, expressed under phosphorylating conditions) EAERSKATAVALGSFPAGGPAELSLRLGEPLTIVSEDGDWWTVLSEVSGREYNIPSVHVAKVSHGWLYEGLSREKAEELLLLPGNPGGAFLIRESQTRRGSYSLSVRLSRPASWDRIRHYRIHCLDNGWLYISPRLTFPSLQALVDHYSELADDICCLLKEPCVLQRAGPLPGKDIPLPVTVQRTPLNWKELDSSLLFSEAATGEESLLSEGLRESLSFFISLNDEAVSLDDA | – | –
3 | – | SLAP2 S246/250E: SLAP2 double mutant in the SLAP2/SLAP2 interface (protein, left off: large carriers; small tags and cut ends, SLAP2 double mutant in the SLAP2/SLAP2 interface) EAERSKATAVALGSFPAGGPAELSLRLGEPLTIVSEDGDWWTVLSEVSGREYNIPSVHVAKVSHGWLYEGLSREKAEELLLLPGNPGGAFLIRESQTRRGSYSLSVRLSRPASWDRIRHYRIHCLDNGWLYISPRLTFPSLQALVDHYSELADDICCLLKEPCVLQRAGPLPGKDIPLPVTVQRTPLNWKELDSSLLFSEAATGEESLLSEGLRESLEFYIELNDEAVSLDDA | did not significantly impact co-purification of CBL | did not alter SLAP2 or pSLAP2 activation of CBL
4 | – | SLAP2 I249W: SLAP2 mutant in the SLAP2/SLAP2 interface (protein, left off: large carriers; small tags and cut ends, SLAP2 mutant in the SLAP2/SLAP2 interface) EAERSKATAVALGSFPAGGPAELSLRLGEPLTIVSEDGDWWTVLSEVSGREYNIPSVHVAKVSHGWLYEGLSREKAEELLLLPGNPGGAFLIRESQTRRGSYSLSVRLSRPASWDRIRHYRIHCLDNGWLYISPRLTFPSLQALVDHYSELADDICCLLKEPCVLQRAGPLPGKDIPLPVTVQRTPLNWKELDSSLLFSEAATGEESLLSEGLRESLSFYWSLNDEAVSLDDA | did not significantly impact co-purification of CBL | did not alter SLAP2 or pSLAP2 activation of CBL
5 | – | Phosphorylated SLAP2 L241R: phosphorylated SLAP2 point mutant L241R at CBL/SLAP2 interface (protein, UniProt Q9H6Q3 2-261, looked up, variant L241R, tyrosine phosphorylated, phosphorylated SLAP2 point mutant L241R at CBL/SLAP2 interface) Src-like-adapter 2: GSLPSRRKSLPSPSLSSSVQGQGPVTMEAERSKATAVALGSFPAGGPAELSLRLGEPLTIVSEDGDWWTVLSEVSGREYNIPSVHVAKVSHGWLYEGLSREKAEELLLLPGNPGGAFLIRESQTRRGSYSLSVRLSRPASWDRIRHYRIHCLDNGWLYISPRLTFPSLQALVDHYSELADDICCLLKEPCVLQRAGPLPGKDIPLPVTVQRTPLNWKELDSSLLFSEAATGEESLLSEGRRESLSFYISLNDEAVSLDDA | – | reduced stimulation of CBL ubiquitination activity compared to pSLAP2 WT
6 | – | Phosphorylated SLAP2 S244E: phosphorylated SLAP2 point mutant S244E at CBL/SLAP2 interface (protein, UniProt Q9H6Q3 2-261, looked up, variant S244E, phosphorylated, phosphorylated SLAP2 point mutant S244E at CBL/SLAP2 interface) Src-like-adapter 2: GSLPSRRKSLPSPSLSSSVQGQGPVTMEAERSKATAVALGSFPAGGPAELSLRLGEPLTIVSEDGDWWTVLSEVSGREYNIPSVHVAKVSHGWLYEGLSREKAEELLLLPGNPGGAFLIRESQTRRGSYSLSVRLSRPASWDRIRHYRIHCLDNGWLYISPRLTFPSLQALVDHYSELADDICCLLKEPCVLQRAGPLPGKDIPLPVTVQRTPLNWKELDSSLLFSEAATGEESLLSEGLREELSFYISLNDEAVSLDDA | – | less stimulation of CBL ubiquitination activity than pSLAP2 WT
